In IntAct's records for PubMed 18952841:

B1: Protein CBFA2T1 (Homo sapiens), Q06455 (parent)
chain: MISVKRNTWRALSLVIGDCRKKGNFEYCQDRTEKHSTMPDSPVDVKTQSRLTPPTMPPPPTTQGAPRTSSFTPTTLTNGTSHSPTALNGAPSPPNGFSNGPSSSSSSSLANQQLPPACGARQLSKLKRFLTTLQQFGNDISPEIGERVRTLVLGLVNSTLTIEEFHSKLQEATNFPLRPFVIPFLKANLPLLQRELLHCARLAKQNPAQYLAQHEQLLLDASTTSPVDSSELLLDVNENGKRRTPDRTKENGFDREPLHSEHPSKRPCTISPGQRYSPNNGLSYQPNGLPHPTPPPPQHYRLDDMAIAHHYRDSYRHPSHRDLRDRNRPMGLHGTRQEEMIDHRLTDREWAEEWKHLDHLLNCIMDMVEKTRRSLTVLRRCQEADREELNYWIRRYSDAEDLKKGGGSSSSHSRQQSPVNPDPVALDAHREFLHRPASGYVPEEIWKKAEEAVNEVKRQAMTELQKAVSEAERKAHDMITTERAKMERTVAEAKRQAAEDALAVINQQEDSSESCWNCGRKASETCSGCNTARYCGSFCQHKDWEKHHHICGQTLQAQQQGDTPAVSSSVTPNSGAGSPMDTPPAATPRSTTPGTPSTIETTPR

Variants of: B1
Conditions: with son_human SON

Variant | effect of a mutation on the interaction
C515S | disrupting interaction strength

Variants of: B1
Conditions: with son_mouse Son

Variant | effect of a mutation on the interaction
C515S | disrupting interaction strength
